In US20040253236A1:

Legend:
[1] = biological target: collagen type I; test: cell-based or functional assay
[2] = biological target: baboon platelet GPVI (baboon); test: flow cytometry, washed baboon platelets (positive control)

Row | Molecule | concentration of rhusGPVI:Fc needed to inhibit collagen-induced versus Cvx-induced platelet activation [1] [fold] | Baboon fluorescence intensity [2] | Baboon platelets % positive [2] [%]
1 | recombinant human soluble GPVI:Fc (rhusGPVI:Fc) (from UniProt Q9HCN6 21-269) (Fc fusion) | 10 | – | –
2 | convulxin (Cvx), purified from the venom of Crotalus durissus terrificus (ligand) chain 1: GLHCPSDWYYYDQHCYRIFNEEMNWEDAEWFCTKQAKGAHLVSIKSAKEADFVAWMVTQNIEESFSHVSIGLRVQNKEKQCSTKWSDGSSVSYDNLLDLYITKCSLLKKETGFRKWFVASCIGKIPFVCKFPPQC chain 2: GFCCPSHWSSYDRYCYKVFKQEMTWADAEKFCTQQHTGSHLVSFHSTEEVDFVVKMTHQSLKSTFFWIGANNIWNKCNWQWSDGTKPEYKEWHEEFECLISRTFDNQWLSAPCSDTYSFVCKFEA | – | 72 | 95
